From the domain aggregation screens of Martell et al. (2025)

Assay: soluble fraction after stress (log2 fold change); higher = more stays soluble; pooled small domains, quantitative proteomics
Details: stress: 75 degC
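Also: 20 min heating vs room temperature control held 20 min.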

Row | Sequence | soluble fraction (log2)
1 | HMIDFDEQGNLWVHEMGPRHGDELNLIEKARNYGYPTVSQGDHYSGVKISNHEDIPIFKSPEKAWVPAISP | -0.228
2 | HMIDFDHADIERLWNSIIHYVPERQKLDFAIDFIKSLEDIGVEHDVLRGSAELDPKLEEAVNTVFE | -0.725
3 | HMIDIIEYIISEESKGLRADQGIALQNPQYSRSLIQKWIKKGSVLVNNKIIRTKEILLEGDKISITPEENI | -0.546
4 | HMIDKIRYPELIMKLAHQQGGTIKRRDVEQLLHLQTKQAYRELSKLVDAGELVSVGRGPGAHYEVS | -0.316
5 | HMIDQNEDLLSGYIDEVLSQNPDKVNEYLKGKSGLIGFFMGQIKQKSATALDAALLKSQLETALEKLRIK | -0.14
6 | HMIDQSVVVQYLSKLTNTPYLKTREITMGEPYMQFERGEIKFQEYVEDIRALLPGGDRIDADRLRDIWMNS | -1.1
7 | HMIDRADLWEALRKLPEDTLKLFSLHFEKGMTHDEISKHTDIPVGTVKTKLRRGLIEARKLAREF | -1.28
8 | HMIDTPQELARLLRLLDEQNFEAEILFHKLRPDLLHLWSKEHVTRIAEALDAFDYQMALTLLNASP | -2.43
9 | HMIDVNLVQRGKTLHLRRRVPMRYSSVERREYVSISLKTDSEAEARRKAGAAWDQMIAAWEARLA | -0.382
10 | HMIDYTDTSAVKDSAAVAGRVREMINEGVPIADVNAFIRSASENGLISDDSARRLRYMNDSR | -0.0436
11 | HMIEDMTINIEERLSLNGDIKKSEYILQYIKPDFIRKVILSPELNKGEIYIYDSKKKVMYLPLFDQVSEEI | -0.355
12 | HMIEINNLEDLKLMKEFILKNGKYGFGVFVGGKYIGLSDIGSVNSFKDTLGLPVVSLGNDDFKRFTEAH | -1.07
13 | HMIEQEQAFLEQVLKKYSQEELVLTVGSRTLVKYSAGQLERLLEHYPHVRLASSPVNGEAGFLLSRG | -0.0614
14 | HMIEQIELEARVPDELGGQRLDQVAAQMFDDFSRSRLTGWIRDGSLTADGQQLRPRDIVYGGTLLQLKAEQ | 0.132
15 | HMIESFQNGLVEHDQFTRPNPWVTPNFSKIEVPSILLSGKHADIDLWKHQNSIENTKKNRPDLFKNYLKKN | -0.149
16 | HMIEYILDYLANRGVYAASQGEQQQMEDGIARYLQENGLEDGNTGAYYQKYVSNHLQQISASDLKAYFLN | -0.946
17 | HMIEYYDDEELDVFKGRQSDNYTNKEIEQFAEVLHTMRQDEVKGWNRSLILRSINLPDSLKDEVIMLI | -0.568
18 | HMIFDPTTLPEKQLLVYGIISSHPGLNAKQISEMLTLKKSSIETAIKGLRKKEIIEYEGTTRNGG | -0.267
19 | HMIFEEDILKEFRGSLIFITHDRRFLDNIATRIIELDRGKLLSFPGNFSAYKKAKNEQLANEAVENA | -0.439
20 | HMIFEETVFKDIAFGPKNMGLSEAEIKRRVYETAENIGLSQELMERSPFELSGGQKRRVAIAGVMAMEP | 0.268
21 | HMIFELDSDRASAGNTIGKLVSKWNNTEVASVQFVSGDDTSNKDNASIYLNTRSGGSGNLVRLRITK | 0.429
22 | HMIFRPALITDLDAVERHYTELLTREAETGRSSTNWSLGVYPTRQTATAAQAAGTLWVLEREGQVVASVI | -0.0961
23 | HMIFTPNGDRVNDVFEIEMGVKLEFQIIILNQQNQTVFKSADPDFKWDGTMLNGEPAPSGTYLYYFSAKD | 0.207
24 | HMIGERIKRARAAAGLSMQALGKQVGISANMVKKYEHDQSMPSSGVLLKLATALSVRTEYFFRPA | -1.38
25 | HMIGGASVFKQFLPLADKMLLTLIHSEFEGDTYFPVFSEKEWLLQESSSLLSATGYQLSFQTYIR | 0.0107
26 | HMIGGEDEILKVVLEVLEEKPEAIEQYKNGRTNIVDFLVGQVMKKTRGQANPATTREFMIREIEK | -0.522

Row | Sequence | soluble fraction (log2)
27 | HMIGKDLLGYEVFSESGDLVGILKDVMWLPHSDVYVITNGGKELLIPVIPEVVKGINHEQGVIVISPM | 0.394
28 | HMIGPYAAAKLMTNKDFVKWLSGGVEKSVFNPNSFGQHIRRLVQISEVNPDIRDEINAVVQGLTQ | -0.445
29 | HMIGRIKGQLIEKKSDSVVIDVHGIGYVVYVTEKTARSLTLGDQSRDISLYSELLVKEDLLQLVGFI | -0.075
30 | HMIGRRLKVARASAGLSLRELAARMDGVVTPQAIGKYERNEDMPGSRALMALASALGVSEGYLLSD | -1.38
31 | HMIHDSAESVVFPFGKYKGYTLAHVIREHPHYTYWIRDNADFSPLWREAVSLALQNRDIGHLNLPHVK | -0.222
32 | HMIHMNMGQKINQLRLQKGFTLEELGNLVGVGKSTVRKWENGMIANMKRDKILLVAEALDTSPAYLMGWD | -2.12
33 | HMIIENIVVEIKGEVYNPGLYILEQGSRINDLIELSGGFTKDANGTDLNLAKVLSDGEVIIVSKKG | -1.29
34 | HMIIIMKPNASEEAVRKVTHIIESKGLQVHLSKGSQVTIVGVVGDKTRLQGSNIEISEGVDKVVAVT | -1.22
35 | HMIILDASASRAIGNGTIEETKWDFGNGESSTNRGGPIVERQIYANQAAYILKLSMKTNDGQLFTKEIQLL | 0.162
36 | HMIINKFERRKEIQIQFNNQERIKFKDFFLNLSKENIIVSFLILLELVRESLIDFSGTNENDIEFFIK | -2.38
37 | HMIITTPYKVTASAINIRSGRGTSYSIIGTVSKGQTVDVYNNSLSKGWVKVKFSGSVGYAYAKYLEK | -1.62
38 | HMIIVMSANANAREISEVIARIRAMGYDVHLSHGKERTIIGVIGRGTPIDREQLSLMSGVQQVMPV | -2.44
39 | HMIKIEDILNVESVELSDSEYKKFLNGILINVKNLENGWAKVYSGNEFKGFGIVDKNLLKRKIVID | -1.49
40 | HMIKIEDYTNKDYNKVEASLEVKGLVVNIEYKAVDDKAKYKGKEDLIIDQSVKKDATLVKGDTIILYLPK | -1.21
41 | HMIKISDYLSEEDLNFIKEMEKIYPYFDFDSEGNLILTKSIDELKDKYGFDEAFVSRLDTVLNSR | 0.108
42 | HMIKITLGWVISVRRHDLGYTQHKMARAVGISDLTVSRIESDDGITPDNNTLRKIAEYLKIDYNSLLTLK | -1.37
43 | HMIKLIKKDTNISELKMSKMPWDVMLYGKPYQVVSIKGYVHTIGGRRGENDLWMYPRDESPTYENLIEFQ | -2.19
44 | HMIKNKDRIQYTLAHRKAFRKIEKELLGYNTFRSLFHDLDKVFLYPFFDYKKVHNFHRNHAHH | 0.132
45 | HMIKRETNDNPVDPASLSLGDRVKILTLNQNGEIISLPDEKGLLQVQVGIMKIGVNVSDIMLI | -0.9
46 | HMIKRITDEQHPVDVDRLLVVTFTNAAASEMRERIGDAIEAALEKDPYNQHLQRQLTLVHNAQITTIDS | 0.171
47 | HMIKSEERIQNIKEYILEFQFTYHRTPTMAQIAEAVGTVKSNVYKYLSEMEERGILTRNKREIEINDTIQ | -0.807
48 | HMIKSMTGYGSAKGTVEGIEVSVELKSVNNKFLDTSIRLPRSFLFAEETIKQAVSSHISRGKVDVFVSVDS | 0.587
49 | HMIKYTIEELGELTGFTRRTIRYYVQEGLIDPPAGRGRGGFYYDSHVQQLLRIKSFQEKGIGITAMVSLM | -2.32
50 | HMILEEIIGKNIARYREAAGLTQATLAEKIGISTAFVSRVERGQKKMKVETLYATAKVLNVSVDALLS | -2.61
51 | HMILKNVPSNLVNQRLDKVATVLFQTYSRTQIKKWILEGRLLVNGEISNPKDLVNENDEIEINPI | -2.95
52 | HMILKQTHIVQELTGPIRLQEYGVGIFQQISTKSALKKALKKNQITVDGVVGSTATFIKGGEIIIYHVTE | -2.67

Row | Sequence | soluble fraction (log2)
53 | HMILNDRSELLDVVKRVIAANPASVADYRKGKKKVLGFLVGQAMKETKGQADPRILNELFLQELGEN | 0.108
54 | HMILNNAKINTELNSLAEFTQRSLDSNTSEIGFYDYKKISYIASFATMKTTNWNVIIRAPINEFMGTVN | 0.126
55 | HMILQTLSERVTETLRDWILHGHFKPGDKIEEVPIAERMGVSRTPVRAAFATLTNEGLIDHQPNRGYQVRV | -0.496
56 | HMILSTNFFRHIVPKEYQTSYGTMKKWLTDHNVIGTNSIPQGIGYRIPTQGLSSTFSFKVVDVLPDR | -0.986
57 | HMIMDQTILRKQRELTDRLNRYRNEYYNHNKPSVSDEVYDRLFDELQSLEKETGVQMANSPTTTVG | -0.0853
58 | HMIMGTITKRTNPSGAIVYRAQIRIKKAGYPDFSESRTFSKKAMAVEWLKLREAELEMHPELLFR | -2.35
59 | HMIMHLNQIIRNKRLAAGLTQEALAQKVGVTAPAVSKWEKGISYPDITLLPILARNLNTDVNTLLDFSA | -1.29
60 | HMIMNLNVLANNVRRLRTAQRLSQSALASKAGLSVPAIKNLENARNEPRVNTVQVIAHALEVRLQDLFAPT | -1.81
61 | HMIMTEKEKKLLNRYIMHDTIHKLYHEQNKSMRWIADNLGINFRTVQKYLDMDSGEFQKYSESISNR | -0.97
62 | HMIMTIYEYIARNNPTGAKRVIESFGYVVTQPKKMGDNLRMLVAQEGEPALKAVVDLHPDKDLILEV | -2.69
63 | HMINAQETEIYRFLIEKANRLYSMVLGLKREELMTATRQFEEEVKHSSIHHLPKIYQAFSSYLELLERG | -1.2
64 | HMINDKLQHLFSLFPAMDKELKRKGITRQILWVEYKKQYPLGFGRSQFNSYFAAWKAQVSPS | -1.98
65 | HMINFLSKREIEVLRLVADGLSNRDVGQYLFISESTVKRHLSTIYEKLAVKSRTQAIDHARRADL | -3.6
66 | HMINGTITFYDDTTLKGELSSLDTKYLFIIPNGLVMPEKIAVSDIEYFNLDNGITLIQDGISKQTY | -1.09
67 | HMINLGDLEVGHTYHTRMPILQNDLKYSHKSPIQIVAEHSIVYGVRVYIGFLNEHRVLVTADDV | 0.0105
68 | HMINLRTALNNAGVMQKELSDILYMTPQDVNRRFSGVTKWKPLEKRAIMQFLEDRGFEYTEEQLF | -0.564
69 | HMINLVPFELKFITAQVLDDIIKKIGINADTIILDINPKKIWVYAGEQELSDIQNIVKNVDVEDNI | -1.71
70 | HMINVLTPKQIEATTIAVKYGYYENPRTVSMRELSEISGIARSTLQEHLSKAEAALMILAAKSQL | -0.365
71 | HMINVVDEVIKHLETNIISGFWAPGQKIDSEATLSKQLNVSRASIHTAIQQLIATGVLESFQGKGTFVRS | -0.305
72 | HMIPDGKWKEDPISDGQKNFINSLIEQAIDAGQDELGAEAKKYLASGEATKGNASAMIDKLKSAL | 0.39
73 | HMIPDMSLELAMSEQTSKGDLYGDLPNDKLALMFNAISKKVPHTDDHKRKMVAIQTILESRAS | -0.415
74 | HMIPEGKWMEDPISEGQIKFIETLIKQAIDSGQDALGAEAKQYLSSGEATKGNASSMIDKLKDAL | 0.433
75 | HMIPEILNGYTKWGDDEPFEDHAGPFYMKMMPSTGRHLSAFIPEQRHMNGGGFLHGGMLMSFADYALFVI | 0.244
76 | HMIPEKEISYMMPDGFMPKELKIIHITESGRKQIYSAAHKPLDLVNVKAPFVPNTKVQIYINDVPIEELKI | -1.01
77 | HMIPKDKQAWIALTYIYGVGRTTSMEILKKAQVGEEIRMKDLTEEEVTRIRNIIDKEYEVEGDLRRN | -0.252
